Assay results as given in paper PMC11199634.

Molecular target: LgBiT-PP1α, P62136
Test: split-luciferase kinetic trace, competition with untagged SDS22
Settings: chain shown with the change; 10 μM competitor added at t = 22 min; value read at the last time point (about 45 min); buffer control est. 160; parent: est. 83; read off a plot

LgBiT-PP1α, P62136, sequence (P62136 whole entry): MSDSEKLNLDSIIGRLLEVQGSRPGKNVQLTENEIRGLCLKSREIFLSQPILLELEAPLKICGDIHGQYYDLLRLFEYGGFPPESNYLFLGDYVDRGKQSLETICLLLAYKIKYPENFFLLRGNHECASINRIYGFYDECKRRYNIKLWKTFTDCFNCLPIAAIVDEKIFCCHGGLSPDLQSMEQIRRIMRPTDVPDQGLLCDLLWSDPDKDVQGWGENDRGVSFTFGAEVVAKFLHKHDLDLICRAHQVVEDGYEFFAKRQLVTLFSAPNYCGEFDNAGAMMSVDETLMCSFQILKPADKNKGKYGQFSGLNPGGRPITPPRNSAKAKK

B1: SDS22 (tag-free, purified), Q15435 E192A (protein)
chain: MAAERGAGQQQSQEMMEVDRRVESEESGDEEGKKHSSGIVADLSEQSLKDGEERGEEDPEEEHELPVDMETINLDRDAEDVDLNHYRIGKIEGFEVLKKVKTLCLRQNLIKCIENLEELQSLRELDLYDNQIKKIENLEALTELEILDISFNLLRNIEGVDKLTRLKKLFLVNNKISKIENLSNLHQLQMLALGSNRIRAIENIDTLTNLESLFLGKNKITKLQNLDALTNLTVLSMQSNRLTKIEGLQNLVNLRELYLSHNGIEVIEGLENNNKLTMLDIASNRIKKIENISHLTELQEFWMNDNLLESWSDLDELKGARSLETVYLERNPLQKDPQYRRKVMLALPSVRQIDATFVRF
- response (% of value at 22min): 150
